Experimental data from paper PMC10705477 (bioRxiv, 2023).
Positions count from the first letter of the chain named. In names and notes the source's numbering stands.

Experiments:
cryo-EM structure = target: the molecule itself; assay: cryo-EM structure
[1] = target: the molecule itself; assay: co-purification on an anion-exchange column

B1: γ protein of the E. coli clamp loader, truncated form (residues 1–373) (domain or fragment)
chain: MSYQVLARKWRPQTFADVVGQEHVLTALANGLSLGRIHHAYLFSGTRGVGKTSIARLLAKGLNCETGITATPCGVCDNCREIEQGRFVDLIEIDAASRTKVEDTRDLLDNVQYAPARGRFKVYLIDEVHMLSRHSFNALLKTLEEPPEHVKFLLATTDPQKLPVTILSRCLQFHLKALDVEQIRHQLEHILNEEHIAHEPRALQLLARAAEGSLRDALSLTDQAIASGDGQVSTQAVSAMLGTLDDDQALSLVEAMVEANGERVMALINEAAARGIEWEALLVEMLGLLHRIAMVQLSPAALGNDMAAIELRMRELARTIPPTDIQLYYQTLLIGRKELPYAPDRRMGVEMTLLRALAFHPRMPLPEPEVPRQ
B1: binds (cryo-EM structure).

B2: γ-K141A (domain or fragment)
chain: B1 chain with K141A
B2: binds [1].
